Experimental data: patent US20230340137A1, “METHODS, THERAPIES AND USES FOR TREATING CANCER” (PFIZER INC., priority 2020, published 2023)

Experiments:
[1] = test system: CD8+ T cells co-cultured with MM.1S multiple myeloma cells; test: PD-1 induction on CD8+ T cells co-cultured with MM.1S-luc cells, flow cytometry; assay type: cell-based, human; conditions: 1 nM BCMAxCD3 bispecific
Method: CD3+ T cells from PBMCs (Stem Cell Technologies) were negatively selected using EasySep Human T cell enrichment kit (Stem Cell Technologies). 10,000 target Multiple Myeloma MM.1S cells expressing luciferase (MM.1S-luc) were seeded with 50,000 CD3^+ pan T cells in a clear 96-well V-bottom plate. Cells were treated with 1 nM BCMAxCD3 bispecific antibody and PD-1 expression was analyzed at 3, 24, 48 and 72 hours after addition of the BCMAxCD3 bispecific. At the specified time points, cells were collected from the wells, washed with PBS+2% FBS, and stained with ZombieNlR Viability dye (Biolegend) in PBS for 20 minutes at room temperature, followed by staining with antibodies against human CD8 and PD-1 (Biolegend). Samples were analyzed using FlowJo flow cytometry analysis software. Dead cells were removed from analysis by gating on ZombieNlR negative population. Samples were further gated on CD8^+ positive population. Percentage of PD-1^+ cells is expressed as PD-1 positive cells within the CD8^+ population.

[2] = test system: adult patients with advanced multiple myeloma; test: Phase 1 clinical study NCT03269136, safety (DLT, CRS); assay type: in vivo
From the text: This Example illustrates an ongoing Phase 1 open-label, multicenter clinical study of PF-06863135 (BCMA×CD3 bispecific) as monotherapy and in combination with sasanlimab, lenalidomide or pomalidomide, in adult patients with advanced multiple myeloma who have relapsed from or are refractory to standard therapy. The study has been registered on ClinicalTrials.gov with identifier NCT03269136 and was first posted August 2017. Study results for Part 1 of the trial and additional arms for the study are described in this Example.
Part 1 of the Study is the […] single agent dose escalation arm at the dose levels of 0.1, 0.3, 1, 3, 10, 30, and 50 μg/kg Q1W by intravenous (IV) administration, and at the dose levels of 80, 130, 215, 360, 600 and 1000 μg/kg Q1W by subcutaneous (SC) administration. Upon reaching maximum tolerated dose (MTD)/maximum administered dose (MAD), patients can be treated at a dose level selected from the foregoing dose levels described in this paragraph, and below the MTD/MAD fora Q2W administration, both IV and SC, to further support the recommended phase 2 dose (RP2D) decision. For the study, dose limiting toxicity observation period is set at 21 days for Q1W dosing and 28 days for Q2W dosing. The treatment cycle, aka cycle, for Q1W dosing would be 3 weeks, and for Q2W dosing would be four weeks.
Clinical Outcome of Part 1 of the Study. As of 15 Apr. 2020, a total of 23 patients were enrolled in Part 1 of the study and had been treated with PF-06863135 administered intravenously (IV) at 0.1 (N=2), 0.3 (N=3), 1 (N=2), 3 (N=3), 10 (N=2), 30 (N=5), and 50 (N=6) μg/kg. As of Aug. 21, 2020, a total of 30 patients were enrolled in Part 1 of the study and had been treated with PF-06863135 administered subcutaneously (SC) at 80 (N=6), 130 (N=4), 215 (N=4), 360 (N=4), 600 (N=6) and 1000 (N=6) μg/kg. Safety and efficacy data were available for in 23 IV and 30 SC treated patients per IMWG (International Myeloma Working Group) criteria.
Part 1.1 of the Study is an alternative maintenance dose escalation arm for single agent PF-06863135. If excessive toxicity occurs or the maximum tolerated dose (MTD)/maximum administered dose (MAD) is reached at a dose level that is earlier than desired in Part 1 of the study described above, a priming dose will be administered one week prior to the day 1 cycle 1 administration of the dose (maintenance dose) at this dose level and for all subsequent dose levels in the dose escalation that may be initiated for Part 1.1. The priming dosing will be at a lower dose level than the maintenance dose.
Clinical outcome of Part 1.1 of the Study. As of Feb. 4, 2021, a total of 20 patients were enrolled and treatment in Part 1.1 of the Study, with cohort of 7 patients at a 600 μg/kg priming dose followed by 1000 μg/kg Q1W dosing, and a cohort of 13 patients at a 600 μg/kg priming dose followed by 1000 μg/kg Q2W dosing. The CRS in these two cohorts is described in Table 13. Introducing of priming dose decreased medium duration of CRS by 50%, from 4 days to 2 days. The dose frequency in part 1.1 of the study (Q1W v. Q2W) had no impact on the CRS. Patient response of Part 1.1 of the Study is described in Table 14.

[3] = 600 μg/kg priming, 1000 μg/kg Q1W or Q2W SC, N = 20
[4] = all SC treated patients (Part 1)

PF-06863135: heterodimeric humanized full-length bispecific antibody, one BCMA binding arm and one CD3 binding arm, modified human IgG2Δa Fc
% PD-1 (of CD8+ T cells) ([1]; 3 hours): 12.8 ± 0.6% | % PD-1 (of CD8+ T cells) ([1]; 24 hours): 18.9 ± 1.2% | % PD-1 (of CD8+ T cells) ([1]; 48 hours): 69.9 ± 3.1% | % PD-1 (of CD8+ T cells) ([1]; 72 hours): 69.9 ± 3.1% | Patients with CRS (number) ([2]; 10 μg/kg IV cohort): 1 | patients with CRS (percent) ([2]; 10 μg/kg IV cohort): 50.0% | Patients with CRS (number) ([2]; 30 μg/kg IV cohort): 4 | patients with CRS (percent) ([2]; 30 μg/kg IV cohort): 80.0% | patients with dose limiting toxicities (DLTs) ([2]; 30 μg/kg IV cohort): 1 patient | patients in whom CRS also occurred after second, third or fourth dose ([2]; 50 μg/kg IV): 3 patients | Patients with CRS (number) ([2]; 50 μg/kg IV cohort): 6 | patients with CRS (percent) ([2]; 50 μg/kg IV cohort): 100.0% | patients with dose limiting toxicities (DLTs) ([2]; 50 μg/kg IV cohort): 1 patient | CRS Grade 1 (number of patients) ([2]; 80 μg/kg Q1W SC, N = 6): 2 | CRS Grade 2 (number of patients) ([2]; 80 μg/kg Q1W SC, N = 6): 1 | CRS Mean duration ([2]; 80 μg/kg Q1W SC, N = 6): 1 days | Patients with CRS (number) ([2]; 80 μg/kg Q1W SC, N = 6): 3 | CRS Grade 1 (number of patients) ([2]; 130 μg/kg Q1W SC, N = 4): 2 | CRS Grade 2 (number of patients) ([2]; 130 μg/kg Q1W SC, N = 4): 0 | CRS Mean duration ([2]; 130 μg/kg Q1W SC, N = 4): 3 days | Patients with CRS (number) ([2]; 130 μg/kg Q1W SC, N = 4): 2 | CRS Grade 1 (number of patients) ([2]; 215 μg/kg Q1W SC, N = 4): 3 | CRS Grade 2 (number of patients) ([2]; 215 μg/kg Q1W SC, N = 4): 0 | CRS Mean duration ([2]; 215 μg/kg Q1W SC, N = 4): 3 days | Patients with CRS (number) ([2]; 215 μg/kg Q1W SC, N = 4): 3 | CRS Grade 1 (number of patients) ([2]; 360 μg/kg Q1W SC, N = 4): 2 | CRS Grade 2 (number of patients) ([2]; 360 μg/kg Q1W SC, N = 4): 1 | CRS Mean duration ([2]; 360 μg/kg Q1W SC, N = 4): 1.7 days | Patients with CRS (number) ([2]; 360 μg/kg Q1W SC, N = 4): 3 | CRS Grade 1 (number of patients) ([2]; 600 μg/kg Q1W SC, N = 6): 4 | CRS Grade 2 (number of patients) ([2]; 600 μg/kg Q1W SC, N = 6): 2 | CRS Mean duration ([2]; 600 μg/kg Q1W SC, N = 6): 1.7 days | Patients with CRS (number) ([2]; 600 μg/kg Q1W SC, N = 6): 6 | decrease of duration of CRS by introducing priming dose ([2]; 600 μg/kg priming then 1000 μg/kg vs 1000 μg/kg without priming, SC): 50% | CRS Grade 1 (number of patients) [2, 3]: 11 | CRS Grade 2 (number of patients) [2, 3]: 9 | CRS Mean duration [2, 3]: 2 days | Patients with CRS (number) [2, 3]: 20 | patients with CRS (percent) [2, 3]: (100%) | CRS Grade 1 (number of patients) ([2]; 1000 μg/kg Q1W SC, N = 6): 5 | CRS Grade 2 (number of patients) ([2]; 1000 μg/kg Q1W SC, N = 6): 1 | CRS Mean duration ([2]; 1000 μg/kg Q1W SC, N = 6): 4 days | Patients with CRS (number) ([2]; 1000 μg/kg Q1W SC, N = 6): 6 | toxicities ([2]; 600 and 1000 μg/kg SC): tolerable and manageable | patients with dose limiting toxicities (DLTs) ([2]; IV cohorts, 23 patients, febrile neutropenia Grade 3 and electrocardiogram QT prolongation Grade 1): 2 patients | CRS onset after dosing ([2]; IV cohorts, each patient with CRS): ≤ 2 days | Cytokine release syndrome (CRS), rank among adverse events ([2]; Part 1 of the study): most common adverse event reported | impact of dose frequency (Q1W v. Q2W) on the CRS ([2]; Part 1.1, 600 μg/kg priming, 1000 μg/kg SC): no impact | patients with dose limiting toxicities (DLTs) ([2]; SC cohorts, 30 patients): No patients | CRS onset after dosing ([2]; SC cohorts, primarily): ≤ 2 days | Patients with CRS (number) ([2]; all IV cohorts): 11 patients | patients with maximum Grade 1 CRS (number) ([2]; all IV treated patients): 6 | patients with maximum Grade 1 CRS (percent) ([2]; all IV treated patients): 26.1% | patients with maximum Grade 2 CRS (number) ([2]; all IV treated patients): 5 | patients with maximum Grade 2 CRS (percent) ([2]; all IV treated patients): 21.7% | patients with maximum Grade 1 CRS (number) [2, 4]: 18 | patients with maximum Grade 1 CRS (percent) [2, 4]: 60.0% | patients with maximum Grade 2 CRS (number) [2, 4]: 5 | patients with maximum Grade 2 CRS (percent) [2, 4]: 16.7% | CRS severity in SC-treated vs IV-treated patients ([2]; despite higher overall dose exposure in SC-treated patients): less severe | timing of CRS relative to doses ([2]; results of Part 1 of the Study): primarily occurs after the initial dose
